Test results from article PMC3078936 (PLoS ONE, 2011).

Molecular target: T1, DYNLL1 (Homo sapiens, UniProt P63167)
T1 construct: 6xHis (N); made in house; host or cells: E. coli BL21(DE3)Star
Experiment: Isothermal titration calorimetry of peptide/protein binding to DYNLL1
Settings: ITC binding enthalpy, PBS + 3 mM 2-mercaptoethanol pH 7.4, 299 K
Experimental: Binding parameters of the in vitro evolved Ac-[…] and naturally evolved Ac-DKSTQTD consensus peptides were determined by isothermal titration calorimetry (ITC). Synthetic peptides were used and N-terminal acetylation was applied to better mimic a non-terminal peptide motif by avoiding the positively charged N-terminus. In order to elucidate the particular contribution of Val-5 to the binding affinity, several control peptides were produced. The in vitro evolved Val-5 was replaced with a glycine (Gly-5) to assess side chain function. In a further truncated variant the entire amino acid residue was replaced with an acetate group (Ac-5) to assess the function of the amide group at position −5. The same variations of Val-5, Gly-5 or Ac-5 were also introduced in the framework of the naturally evolved consensus peptide. DYNNL1 binding of all six variants was analyzed by ITC. In all measurements the stoichiometry of binding was 1∶1 (2 peptides binding to one homodimer DYNNL1). […]
All peptides and DYNLL1 were dialyzed overnight in PBS buffer supplemented with 3 mM 2-mercaptoethanol (pH 7.4). […] For each experiment the thermodynamic parameters were determined at 299 K. We used a VP-ITC instrument from Microcal and the data were fitted by the software package Origin 5.0 (OriginLab) using the simple A + B to AB binding model. […]

T1 sequence (P63167 whole entry): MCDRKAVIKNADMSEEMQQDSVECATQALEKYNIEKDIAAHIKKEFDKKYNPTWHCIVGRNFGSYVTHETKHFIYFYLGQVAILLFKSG

B1: EML3 (8-94): recombinant fragment of EML3 (residues 8–94) containing a coiled coil domain and the in vitro evolved consensus motif (protein, UniProt Q32P44 8-94, looked up, fragment)
chain: GDGPAREALQSLSQRLRVQEQEMELVKAALAEALRLLRLQVPPSSLQGSGTPAPPGDSLAAPPGLPPTCTPSLVSRGTQTETEVELK
ΔH: -7.74 kcal/mol
